{"source": "patent EP1834963A1", "about": "“Di-polymer protein conjugates and processes for their preparation” (priority 2006, dated 2007)", "key": {"[1]": {"experiment": "in vivo clearance (pharmacokinetic) studies in sham-operated and nephrectomised rats", "details": "intravenous 0.005 mg/kg; for clearance mechanism: sham-operated and nephrectomised rats, inferred from similar kinetics", "method": "The clearance mechanism of (i) the Di-PEG G-CSF product mixture (43 kDa total MW) comprising di-PEG 12kDa G-CSF and […] isoforms according to example A6 and of (ii) the single isoform, Di'-PEG 20kDa G-CSF conjugate (59 kDa total MW) according to example B, was tested in vivo in comparison to commercially available mono-pegylated G-CSF (Neulasta®)\nThe in vivo studies were open randomized, parallel- grouped clearance studies of Neulasta® with either the Di-PEG G-CSF product mixture or the single di'-PEG 20kDa G-CSF conjugate isoform in sham-operated (control group) and nephrectomised rats. The studies were carried out by intravenous injection of 0.005 mg/kg of the conjugate to male rats. Four animals per group per time point were subjected to bleeding. The remaining G-CSF plasma concentration was determined in the serum samples and relevant pharmacokinetic data such as the plasma elimination half-life were calculated."}, "male rats [2]": {"test_system": "male rats", "experiment": "in vivo single dose biocomparability study of di-PEG G-CSF product with Neupogen and Neulasta (WBC and neutrophil counts)", "details": "single subcutaneous injection 0.1 mg/kg", "method": "The di-PEG G-CSF product comprising a mixture of di- and di' PEG G-CSF conjugate isoforms according to the invention was tested in vivo, to show the improved activity versus unmodified G-CSF (Neupogen®) and to compare its biological activity with commercially available mono-pegylated G-CSF (Neulasta®).\nThe in vivo study was an open randomized, parallel- grouped single dose biocomparability study of Neupogen® and Neulasta® with the di-PEG G-CSF product. It was carried out by subcutaneously injecting 0.1 mg/kg to male rats. Six animals per group per time point were subjected to bleeding. Serum samples were subjected to a complete blood count on the same day that the samples were collected. The average white blood cell counts and neutrophil counts were calculated."}, "male rats [3]": {"test_system": "male rats", "experiment": "in vivo single dose biocomparability study of Di'-PEG 20kDa G-CSF isoform with Neupogen and Neulasta (WBC and neutrophil counts)", "details": "single subcutaneous injection 0.1 mg/kg; for average white blood cell counts (WBC) and WBC response: Figure 14; for average neutrophil counts and neutrophil response: Figure 15", "method": "For testing the biological activity of the Di'-PEG 20kDa G-CSF conjugate isoform in vivo, the single isoform was highly purified by preparative cation exchange chromatography. The defined product contained at least 95% di'-PEG G-CSF conjugate isoform as described in example A 6, paragraph d)ii). The in vivo study was an open randomized, parallel- grouped single dose biocomparability study of Neupogen® and Neulasta® with the single di'-PEG G-CSF conjugate isoform. It was carried out by subcutaneously injecting 0.1 mg/kg to male rats. Six animals per group per time point were subjected to bleeding. Serum samples were subjected to a complete blood count on the same day that the samples were collected. The average white blood cell counts and neutrophil counts were calculated."}, "[4]": {"details": "NE - nephrectomised rats, PK study Neulasta vs Di-PEG 12kDa G-CSF mixture"}, "[5]": {"details": "SH - sham operated rats, PK study Neulasta vs Di-PEG 12kDa G-CSF mixture"}, "[6]": {"details": "NE - nephrectomised rats, PK study Neulasta vs Di'-PEG 20kDa G-CSF isoform"}, "[7]": {"details": "SH - sham operated rats, PK study Neulasta vs Di'-PEG 20kDa G-CSF isoform"}, "[8]": {"details": "compared to unmodified G-CSF (Neupogen®)"}}}
{"molecule": "Di-PEG 12kDa G-CSF mixture (conjugate, UniProt P09919 31-207, looked up, two 12 kDa PEG chains) Granulocyte …: TPLGPASSLPQSFLLKCLEQVRKIQGDGAALQEKLVSECATYKLCHPEELVLLGHSLGIPWAPLSSCPSQALQLAGCLSQLHSGLFLYQGLLQALEGISPELGPTLDTLQLDVADFATTIWQQMEELGMAPALQPTQGAMPAFASAFQRRAGGVLVASHLQSFLEVSYRVLRHLAQP", "values": [{"measurement": "Elimination half-life", "setting": "[1]; [4]", "result": 3.4, "unit": "h"}, {"measurement": "Elimination half-life", "setting": "[1]; [5]", "result": 2.9, "unit": "h"}, {"measurement": "clearance mechanism", "setting": "[1]", "result": "predominantly cleared by Neutrophil Receptor-mediated clearance"}, {"measurement": "average white blood cell counts (WBC)", "setting": "male rats [2]; compared to Neulasta®, Figure 8", "result": "at least biosimilar, perhaps potentially better, because of slightly higher maximum WBC and neutrophil counts"}, {"measurement": "average neutrophil counts", "setting": "male rats [2]; compared to Neulasta®, Figure 9", "result": "at least biosimilar, perhaps potentially better, because of slightly higher maximum WBC and neutrophil counts"}, {"measurement": "average white blood cell counts (WBC) and WBC response", "setting": "male rats [2]; compared to unmodified G-CSF (Neupogen®), Figure 8", "result": "higher WBC and neutrophil counts and longer sustained WBC and neutrophil response"}, {"measurement": "average neutrophil counts and neutrophil response", "setting": "male rats [2]; compared to unmodified G-CSF (Neupogen®), Figure 9", "result": "higher WBC and neutrophil counts and longer sustained WBC and neutrophil response"}]}
{"molecule": "Neulasta (conjugate, UniProt P09919 31-207, looked up, pegfilgrastim; N-terminal Met, 20 kDa PEG) Granulocyte …: TPLGPASSLPQSFLLKCLEQVRKIQGDGAALQEKLVSECATYKLCHPEELVLLGHSLGIPWAPLSSCPSQALQLAGCLSQLHSGLFLYQGLLQALEGISPELGPTLDTLQLDVADFATTIWQQMEELGMAPALQPTQGAMPAFASAFQRRAGGVLVASHLQSFLEVSYRVLRHLAQP", "values": [{"measurement": "Elimination half-life", "setting": "[1]; [6]", "result": 2.1, "unit": "h"}, {"measurement": "Elimination half-life", "setting": "[1]; [4]", "result": 2.5, "unit": "h"}, {"measurement": "Elimination half-life", "setting": "[1]; [7]", "result": 1.9, "unit": "h"}, {"measurement": "Elimination half-life", "setting": "[1]; [5]", "result": 1.9, "unit": "h"}, {"measurement": "clearance mechanism", "setting": "[1]", "result": "predominantly cleared by Neutrophil Receptor-mediated clearance"}]}
{"molecule": "Di'-PEG 20kDa G-CSF isoform (conjugate, UniProt P09919 31-207, looked up, two 20 kDa PEG chains) Granulocyte …: TPLGPASSLPQSFLLKCLEQVRKIQGDGAALQEKLVSECATYKLCHPEELVLLGHSLGIPWAPLSSCPSQALQLAGCLSQLHSGLFLYQGLLQALEGISPELGPTLDTLQLDVADFATTIWQQMEELGMAPALQPTQGAMPAFASAFQRRAGGVLVASHLQSFLEVSYRVLRHLAQP", "values": [{"measurement": "Elimination half-life", "setting": "[1]; [6]", "result": 3.7, "unit": "h"}, {"measurement": "Elimination half-life", "setting": "[1]; [7]", "result": 3.3, "unit": "h"}, {"measurement": "clearance mechanism", "setting": "[1]", "result": "predominantly cleared by Neutrophil Receptor-mediated clearance"}, {"measurement": "average white blood cell counts (WBC) and WBC response", "setting": "male rats [3]; compared to Neulasta®", "result": "bioimproved because of higher maximum WBC and neutrophil counts and its sustained WBC and neutrophil response"}, {"measurement": "average neutrophil counts and neutrophil response", "setting": "male rats [3]; compared to Neulasta®", "result": "bioimproved because of higher maximum WBC and neutrophil counts and its sustained WBC and neutrophil response"}, {"measurement": "average white blood cell counts (WBC) and WBC response", "setting": "male rats [3]; [8]", "result": "i) higher WBC and neutrophil counts and ii) showed a sustained WBC and neutrophil response"}, {"measurement": "average neutrophil counts and neutrophil response", "setting": "male rats [3]; [8]", "result": "i) higher WBC and neutrophil counts and ii) showed a sustained WBC and neutrophil response"}]}
